The chains are these.
T1: Bovine, dephosphorylated, Myelin Basic Protein (MBP), P02687
T1 chain: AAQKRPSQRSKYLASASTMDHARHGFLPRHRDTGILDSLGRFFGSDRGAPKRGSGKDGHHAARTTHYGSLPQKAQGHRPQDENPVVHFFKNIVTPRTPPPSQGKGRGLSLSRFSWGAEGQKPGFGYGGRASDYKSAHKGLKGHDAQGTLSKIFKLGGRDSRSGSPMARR

B1: EPHA4 (protein)
chain: SRRRSKYSKAKQEADEEKHLNQGVRTYVDPFTYEDPNQAVREFAKEIDASCIKIEKVIGVGEFGEVCSGRLKVPGKREICVAIKTLKAGYTDKQRRDFLSEASIMGQFDHPNIIHLEGVVTKCKPVMIITEYMENGSLDAFLRKNDGRFTVIQLVGMLRGIGSGMKYLSDMSYVHRDLAARNILVNSNLVCKVSDFGMSRVLEDDPEAAYTTRGGKIPIRWTAPEAIAYRKFTSASDVWSYGIVMWEVMSYGERPYWDMSNQDVIKAIEEGYRLPPPMDCPIALHQLMLDCWQKERSDRPKFGQIVNMLDKLIRNPNSLKRTGTESSRPNTALLDPSSPEFSAVVSVGDWLQAIKMDRYKDNFTAAGYTTLEAVVHVNQEDLARIGITAITHQNKILSSVQAMRTQMQQMHGRMVPV
B2: DYRK3 (protein)
chain: MGGTARGPGRKDAGPPGAGLPPQQRRLGDGVYDTFMMIDETKCPPCSNVLCNPSEPPPPRRLNMTTEQFTGDHTQHFLDGGEMKVEQLFQEFGNRKSNTIQSDGISDSEKCSPTVSQGKSSDCLNTVKSNSSSKAPKVVPLTPEQALKQYKHHLTAYEKLEIINYPEIYFVGPNAKKRHGVIGGPNNGGYDDADGAYIHVPRDHLAYRYEVLKIIGKGSFGQVARVYDHKLRQYVALKMVRNEKRFHRQAAEEIRILEHLKKQDKTGSMNVIHMLESFTFRNHVCMAFELLSIDLYELIKKNKFQGFSVQLVRKFAQSILQSLDALHKNKIIHCDLKPENILLKHHGRSSTKVIDFGSSCFEYQKLYTYIQSRFYRAPEIILGSRYSTPIDIWSFGCILAELLTGQPLFPGEDEGDQLACMMELLGMPPPKLLEQSKRAKYFINSKGIPRYCSVTTQADGRVVLVGGRSRRGKKRGPPGSKDWGTALKGCDDYLFIEFLKRCLHWDPSARLTPAQALRHPWISKSVPRPLTTIDKVSGKRVVNPASAFQGLGSKLPPVVGIANKLKANLMSETNGSIPLCSVLPKLIS
B3: DMPK (protein)
chain: MSAEVRLRRLQQLVLDPGFLGLEPLLDLLLGVHQELGASELAQDKYVADFLQWAEPIVVRLKEVRLQRDDFEILKVIGRGAFSEVAVVKMKQTGQVYAMKIMNKWDMLKRGEVSCFREERDVLVNGDRRWITQLHFAFQDENYLYLVMEYYVGGDLLTLLSKFGERIPAEMARFYLAEIVMAIDSVHRLGYVHRDIKPDNILLDRCGHIRLADFGSCLKLRADGTVRSLVAVGTPDYLSPEILQAVGGGPGTGSYGPECDWWALGVFAYEMFYGQTPFYADSTAETYGKIVHYKEHLSLPLVDEGVPEEARDFIQRLLCPPETRLGRGGAGDFRTHPFFFGLDWDGLRDSVPPFTPDFEGATDTCNFDLVEDGLTAMVSGGGETLSDIREGAPLGVHLPFVGYSYSCMALRDSEVPGPTPMELEAEQLLEPHVQAPSLEPSVSPQDETAEVAVPAAVPAAEAEAEVTLRELQEALEEEVLTRQSLSREMEAIRTDNQNFASQLREAEARNRDLEAHVRQLQERMELLQAEGATAVTGVPSPRATDPPSHLDGPPAVAVGQCPLVGPGPMHRRHLLLPARVPRPGLSEALSLLLFAVVLSRAAALGCIGLVAHAGQLTAVWRRPGAARAP
B4: GRK4 (protein)
chain: MELENIVANSLLLKARQGGYGKKSGRSKKWKEILTLPPVSQCSELRHSIEKDYSSLCDKQPIGRRLFRQFCDTKPTLKRHIEFLDAVAEYEVADDEDRSDCGLSILDRFFNDKLAAPLPEIPPDVVTECRLGLKEENPSKKAFEECTRVAHNYLRGEPFEEYQESSYFSQFLQWKWLERQPVTKNTFRHYRVLGKGGFGEVCACQVRATGKMYACKKLQKKRIKKRKGEAMALNEKRILEKVQSRFVVSLAYAYETKDALCLVLTIMNGGDLKFHIYNLGNPGFDEQRAVFYAAELCCGLEDLQRERIVYRDLKPENILLDDRGHIRISDLGLATEIPEGQRVRGRVGTVGYMAPEVVNNEKYTFSPDWWGLGCLIYEMIQGHSPFKKYKEKVKWEEVDQRIKNDTEEYSEKFSEDAKSICRMLLTKNPSKRLGCRGEGAAGVKQHPVFKDINFRRLEANMLEPPFCPDPHAVYCKDVLDIEQFSVVKGIYLDTADEDFYARFATGCVSIPWQNEMIESGCFKDINKSESEEALPLDLDKNIHTPVSRPNRGFFYRLFRRGGCLTMVPSEKEVEPKQC

Results on 4 proteins are retold here after US20090099029.

This series addresses T1, Bovine, dephosphorylated, Myelin Basic ….
As to B1, the “MBP Kinase Activity” value is given as “Strong”.
Regarding B2, the “MBP Kinase Activity” value was “Negative”.
Consider B3, for which the “MBP Kinase Activity” value is on record as “Negative”.
With B4, the “MBP Kinase Activity” value is reported as “Negative”.
